We go through six molecules from patent publication US7279325B2, “Method for identifying antagonist compounds of the estrogen-related receptor 3 (ERR3) by using the x-ray structural coordinates of the ligand binding domain” (priority 2002, dated 2007).

Residue numbers refer to the chain shown, from its start. Numbers in names are those of the source.

B1: GST-tagged SRC-1 RID (Receptor Interaction Domain of hSRC-1, amino acids 614-764) (other, not shown: a dimerising Fc or GST)
chain: HNNDRLSDGDSKYSQTSHKLVQLLTTTAEQQLRHADIDTSCKDVLSCTGTSNSASANSSGGSCPSSHSSLTERHKILHRLLQEGSPSDITTLSVEPDKKDSASTSVSVTGQVQGNSSIKLELDASKKKESKDHQLLRYLLDKDEKDLRSTP
notes: also called GST-SRC-1 RID; RID of SRC-1
B2: His-tagged ERR3 LBD mutant L345I-F435L (receptor)
chain: PAKKPYNKIVSHLLVAEPEKIYAMPDPTVPDSDIKALTTLCDLADRELVVIIGWAKHIPGFSTLSLADQMSLLQSAWMEILILGVVYRSLSFEDELVYADDYIMDEDQSKLAGLLDINNAILQLVKKYKSMKLEKEEFVTLKAIALANSDSMHIEDVEAVQKLQDVLHEALQDYEAGQHMEDPRRAGKMLMTLPLLRQTSTKAVQHLYNIKLEGKVPMHKLFLEMLEAKV
notes: not shown: hexahistidine tag from vector pET-15b
B3: His-tagged ERR3 LBD mutant L345I-F435L-F450L (receptor)
chain: B2 chain with F222L
notes: also called triple point mutation; not shown: hexahistidine tag from vector pET-15b
B4: hSRC-1 peptide (SRC-1 NR box 2, amino acids 686-700) (peptide)
peptide: RHKILHRLLQEGSPS
notes: Contains the second LXXLL motif of the RID of SRC-1; also called SRC-1 NR box 2 peptide

One assay has as its target T1, ERRα (Homo sapiens, UniProt P11474).
T1 sequence (P11474 1-423): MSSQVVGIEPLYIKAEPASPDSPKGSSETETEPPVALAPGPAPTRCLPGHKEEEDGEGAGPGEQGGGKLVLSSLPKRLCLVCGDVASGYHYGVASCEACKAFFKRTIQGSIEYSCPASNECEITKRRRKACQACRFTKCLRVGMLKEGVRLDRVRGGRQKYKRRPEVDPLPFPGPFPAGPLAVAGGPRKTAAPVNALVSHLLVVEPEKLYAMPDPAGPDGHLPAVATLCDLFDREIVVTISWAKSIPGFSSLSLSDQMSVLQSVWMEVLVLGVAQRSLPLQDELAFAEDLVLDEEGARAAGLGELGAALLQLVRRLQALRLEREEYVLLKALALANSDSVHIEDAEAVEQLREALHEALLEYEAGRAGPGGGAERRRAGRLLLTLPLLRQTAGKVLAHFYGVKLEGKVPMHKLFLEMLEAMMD
To be noted: micromolar concentrations; Yang and Chen (1999); cited from earlier work.

Assay [1] has as its target T2, His-tagged ERR3 LBD mutant F435L (human (human and murine receptor are …, UniProt P62508 229-458)).
T2 construct: also called ERR3(F435L); PHE435LEU; not shown: hexahistidine tag from vector pET-15b
T2 sequence: B2 chain with I117L
The assay is described as follows: native polyacrylamide gradient gel, no ligand. The method, then: (§1) After purification the proteins were dialyzed in assay buffer (20 mM Tris.HCl pH 8.0, 200 mM NaCl), and concentrated. […] Protein complexes were resolved on native polyacrylamide gradient gels (8%-25%) using the Phast System (Pharmacia).
(§2) In vitro interaction assays with the RID (amino acids 617-764) of the coactivator SRC-1 has first been performed. […] Complexes were separated on native polyacrylamide gradient gels.

Assay [2] deals with T3, His-tagged ERR3 LBD (wild type; residues 229 to 458 of the Estrogen-Related Receptor 3) (human (human and murine receptor are …, UniProt P62508 229-458).
T3 construct: Expressed in E. coli BL21(DE3); Forms a homodimer in the crystal, in gel filtration and in mass spectrometry; SwissProt O75454 is printed for hERR3; also called wt LBD; wt ERR3; not shown: hexahistidine tag from vector pET-15b
T3 sequence: B2 chain with I117L, L207F
The assay is described as follows: native polyacrylamide gradient gel, no ligand. How it is done:
as §1, §2

Assay [3] has as its target T4, His-tagged ERR3 LBD mutant L345I (human (human and murine receptor are …, UniProt P62508 229-458)).
T4 construct: not shown: hexahistidine tag from vector pET-15b
T4 sequence: B2 chain with L207F
The assay is described as follows: native polyacrylamide gradient gel, no ligand. How it is done: as §1, §2

Assay [4] addresses T5, His-tagged ERR3 LBD mutant A272L (human (human and murine receptor are …, UniProt P62508 229-458)).
T5 construct: also called ERR3(A272L); ALA272LEU; not shown: hexahistidine tag from vector pET-15b
T5 sequence: B2 chain with A44L, I117L, L207F
In words: native polyacrylamide gradient gel, no ligand. The method, then: as §1, §2

Assay [5] deals with T6, His-tagged ERR3 LBD mutant A272F (human (human and murine receptor are …, UniProt P62508 229-458)).
T6 construct: also called ERR3(A272F); ALA272PHE; not shown: hexahistidine tag from vector pET-15b
T6 sequence: B2 chain with A44F, I117L, L207F
In words: native polyacrylamide gradient gel, no ligand. How it is done: as §1, §2

Assay [6] has as its target B1. The assay is described as follows: native polyacrylamide gradient gel, no ligand. The method, then: as §1, §2
The target in assay [7] is T3, His-tagged ERR3 LBD (wild type; …). The assay is described as follows: crystal structure. The text has this:
A.2 Protein Purification, Crystallization, Data Collection and Processing.

Consider `CC1(C)C(C(Cl)Cl)C2(Cl)C(Cl)C(Cl)C1(Cl)C2(Cl)Cl` (stereo not shown) [toxaphene], for which, on ERRα, the ERRα basal activity result is recorded as “decrease”.
Regarding `ClC1=C(Cl)C2(Cl)C3C(Cl)C(Cl)CC3C1(Cl)C2(Cl)Cl` (stereo not shown) [chlordane], the ERRα basal activity entry on ERRα was “decrease”.
As for B1, the binding result in assay [1], in assay [2], in assay [3], in assay [4] and in assay [5] was “binds” throughout.
Regarding B2, in assay [6], the binding result is “binds”.
Still for that read-out and setting: the value for B3 was “binds”.
For B4, the binding result in assay [7] is “binds”.
